In patent publication US20130195871A1 (AbbVie / Abbott, published 2013):
Values belong to the binder of their own block, whether it stands above or below them.

Columns and labels:
Recombinant Human IGF1R = target: T1, Recombinant Human IGF1R (human, UniProt P08069 31-932); test: SPR (Biacore), N-terminal VD;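 further: capture of antibodies or DVD-Ig proteins on an anti-mouse IgG chip surface, recombinant antigen injected at 10–200 nM in HBS-EP running buffer at 25 °C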
T1 construct: bought reagent

[1] = target: T2, Recombinant Human MSP Receptor ECD-His tag (human, UniProt Q04912 25-957); test: SPR (Biacore), N-terminal VD;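 further: capture of antibodies or DVD-Ig proteins on an anti-mouse IgG chip surface, recombinant antigen injected at 10–200 nM in HBS-EP running buffer at 25 °C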
T2 construct: extracellular domain; bought reagent; also called RON

[2] = target: T2, Recombinant Human MSP Receptor ECD-His …; test: SPR (Biacore)
Protocol: The BIACORE assay (Biacore, Inc, Piscataway, N.J.) determined the affinity of antibodies or DVD-Ig proteins with kinetic measurements of on-rate and off-rate constants. Binding of antibodies or DVD-Ig proteins to a target antigen (for example, a purified recombinant target antigen) was determined by surface plasmon resonance-based measurements with a Biacore® 1000 or 3000 instrument (Biacore AB, Uppsala. Sweden) using running HBS-EP (10 mM HEPES [pH 7.4], 150 mM NaCl, 3 mM EDTA, and 0.005% surfactant P20) at 25° C. […] For example, approximately 5000 RU of goat anti-mouse IgG, (Fcγ), fragment specific polyclonal antibody (Pierce Biotechnology Inc, Rockford, Ill.) diluted in 10 mM sodium acetate (pH 4.5) was directly immobilized across a CM5 research grade biosensor chip using a standard amine coupling kit according to manufacturer's instructions and procedures at 25 μg/ml. Unreacted moieties on the biosensor surface were blocked with ethanolamine. Modified carboxymethyl dextran surface in flowcell 2 and 4 was used as a reaction surface. Unmodified carboxymethyl dextran without goat anti-mouse IgG in flow cell 1 and 3 was used as the reference surface. For kinetic analysis, rate equations derived from the 1:1 Langmuir binding model were fitted simultaneously to association and dissociation phases of all eight injections (using global fit analysis) with the use of Biaevaluation 4.0.1 software. Purified antibodies or DVD-Ig proteins were diluted in HEPES-buffered saline for capture across goat anti-mouse IgG specific reaction surfaces. Antibodies or DVD-Ig proteins to be captured as a ligand (25 μg/ml) were injected over reaction matrices at a flow rate of 5 μl/minute. The association and dissociation rate constants, kₒₙ (M⁻¹s⁻¹) and koff (s⁻¹) were determined under a continuous flow rate of 25 μl/minute. Rate constants were derived by making kinetic binding measurements at different antigen concentrations ranging from 10-200 nM. The equilibrium dissociation constant (M) of the reaction between antibodies or DVD-Ig proteins and the target antigen was then calculated from the kinetic rate constants by the following formula: KD=koff/kₒₙ. Binding was recorded as a function of time and kinetic rate constants were calculated.

[3] = target: T3, Recombinant Human ErbB3/FC Chimera-His tag (human, UniProt P21860 20-643); test: SPR (Biacore), N-terminal VD;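 further: capture of antibodies or DVD-Ig proteins on an anti-mouse IgG chip surface, recombinant antigen injected at 10–200 nM in HBS-EP running buffer at 25 °C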
T3 construct: bought reagent

Kd (Recombinant Human IGF1R): 8.6 nM
koff (Recombinant Human IGF1R): 0.00021 s⁻¹
kon (Recombinant Human IGF1R): 25000 M⁻¹ s⁻¹
B1: DVD2278 (bispecific antibody)
VH: EVQLVQSGAEVKKPGSSVKVSCKASGGTFSSYAISWVRQAPGQGLEWMGGIIPIFGTANYAQKFQGRVTITADKSTSTAYMELSSLRSEDTAVYYCARAPLRFLEWSTQDHYYYYYMDVWGKGTTVTVSSASTKGPEVQLVESGGGLVQPGGSLRLSCAASGFTFSIYSMNWVRQAPGKGLEWVSYISSSSSTIYYADSVKGRFTISRDNAKNSLYLQMNSLRDEDTAVYYCARDRGDFDAFDIWGQGTMVTVSS
VL: SSELTQDPAVSVALGQTVRITCQGDSLRSYYATWYQQKPGQAPILVIYGENKRPSGIPDRFSGSSSGNTASLTITGAQAEDEADYYCKSRDGSGQHLVFGGGTKLTVLGQPKAAPDIQMTQSPSSLSASVGDRVTITCQASQDITNYLNWYQQKPGKAPKLLIYDASNLETGVPSRFSGSGSGTDFTFTISSLQPEDIATYNCQQCENFPITFGQGTRLEIK
notes: DVD-Ig, outer AB075 / inner AB063

Kd (Recombinant Human IGF1R): 5.2 nM
koff (Recombinant Human IGF1R): 0.00013 s⁻¹
kon (Recombinant Human IGF1R): 25000 M⁻¹ s⁻¹
B2: DVD2282 (bispecific antibody)
VH: EVQLVQSGAEVKKPGSSVKVSCKASGGTFSSYAISWVRQAPGQGLEWMGGIIPIFGTANYAQKFQGRVTITADKSTSTAYMELSSLRSEDTAVYYCARAPLRFLEWSTQDHYYYYYMDVWGKGTTVTVSSASTKGPQVQLQQWGAGLLKPSETLSLTCAVYGGSFSGYYWSWIRQPPGKGLEWIGEINHSGSTNYNPSLKSRVTISVETSKNQFSLKLSSVTAADTAVYYCARDKWTWYFDLWGRGTLVTVSS
VL: SSELTQDPAVSVALGQTVRITCQGDSLRSYYATWYQQKPGQAPILVIYGENKRPSGIPDRFSGSSSGNTASLTITGAQAEDEADYYCKSRDGSGQHLVFGGGTKLTVLGQPKAAPDIEMTQSPDSLAVSLGERATINCRSSQSVLYSSSNRNYLAWYQQNPGQPPKLLIYWASTRESGVPDRFSGSGSGTDFTLTISSLQAEDVAVYYCQQYYSTPRTFGQGTKVEIK
notes: DVD-Ig, outer AB075 / inner AB062

Kd [1]: 19 nM
koff [1]: 0.00089 s⁻¹
kon [1]: 46000 M⁻¹ s⁻¹
B3: DVD2316 (bispecific antibody)
VH: EVQLVQSGGGLVKPGGSLRLSCAASGFTFSSYAMHWVRQAPGKGLEWVAVISYDGSNKYYADSVKGRFTISRDNSKNTLYLQMNSLRAEDTAVYYCARFSGWPNNYYYYGMDVWGQGTTVTVSSASTKGPEVQLVESGGGLVQPGGSLRLSCAASGFTFTDYTMDWVRQAPGKGLEWVADVNPNSGGSIYNQRFKGRFTLSVDRSKNTLYLQMNSLRAEDTAVYYCARNLGPSFYFDYWGQGTLVTVSS
VL: DVVMTQSPLSLPVTPGEPASISCRSSQSLLHSNGFNYVDWYLQKPGQSPHLLIYFGSYRASGVPDRFSGSGSGTDFTLKISRVEAEDVGVYYCMQALQTPPWTFGQGTKVEIRRTVAAPDIQMTQSPSSLSASVGDRVTITCKASQDVSIGVAWYQQKPGKAPKLLIYSASYRYTGVPSRFSGSGSGTDFTLTISSLQPEDFATYYCQQYYIYPYTFGQGTKVEIK
notes: DVD-Ig, outer AB005 / inner AB080

Kd (Recombinant Human IGF1R): 12 nM
koff (Recombinant Human IGF1R): 0.00026 s⁻¹
kon (Recombinant Human IGF1R): 22000 M⁻¹ s⁻¹
B4: DVD2288 (bispecific antibody)
VH: EVQLVQSGAEVKKPGSSVKVSCKASGGTFSSYAISWVRQAPGQGLEWMGGIIPIFGTANYAQKFQGRVTITADKSTSTAYMELSSLRSEDTAVYYCARAPLRFLEWSTQDHYYYYYMDVWGKGTTVTVSSASTKGPEVQLVESGGGLVQPGGSLRLSCAASGFTFTDYTMDWVRQAPGKGLEWVADVNPNSGGSIYNQRFKGRFTLSVDRSKNTLYLQMNSLRAEDTAVYYCARNLGPSFYFDYWGQGTLVTVSS
VL: SSELTQDPAVSVALGQTVRITCQGDSLRSYYATWYQQKPGQAPILVIYGENKRPSGIPDRFSGSSSGNTASLTITGAQAEDEADYYCKSRDGSGQHLVFGGGTKLTVLGQPKAAPDIQMTQSPSSLSASVGDRVTITCKASQDVSIGVAWYQQKPGKAPKLLIYSASYRYTGVPSRFSGSGSGTDFTLTISSLQPEDFATYYCQQYYIYPYTFGQGTKVEIK
notes: DVD-Ig, outer AB075 / inner AB080

Kd [2]: 16 nM
koff [2]: 0.0013 s⁻¹
kon [2]: 83000 M⁻¹ s⁻¹
B5: DVD2208 (bispecific antibody)
VH: EVQLVQSGGGLVKPGGSLRLSCAASGFTFSSYAMHWVRQAPGKGLEWVAVISYDGSNKYYADSVKGRFTISRDNSKNTLYLQMNSLRAEDTAVYYCARFSGWPNNYYYYGMDVWGQGTTVTVSSASTKGPQVQLQESGPGLVKPSEILSLTCTVSGGSISSHYWSWVRQPPGKGLEWIGYIYYSGSTNYNPSLKSRVTISVDTSKNQFSLNLSSVTAADTAVYYCARIPNYYDRSGYYPGYWYFDLWGRGTLVTVSS
VL: DVVMTQSPLSLPVTPGEPASISCRSSQSLLHSNGFNYVDWYLQKPGQSPHLLIYFGSYRASGVPDRFSGSGSGTDFTLKISRVEAEDVGVYYCMQALQTPPWTFGQGTKVEIRRTVAAPQAVLTQPSSLSAPPGASASLTCTLRSGFNVDSYRISWYQQKPGSPPQYLLRYKSDSDKQQGSGVPSRFSGSKDASANAGILLISGLQSEDEADYYCMIWHSSAWVFGGGTKLTVL
notes: DVD-Ig, outer AB005 / inner AB034

Kd [2]: 16 nM
koff [2]: 0.0012 s⁻¹
kon [2]: 74000 M⁻¹ s⁻¹
B6: DVD2212 (bispecific antibody)
VH: EVQLVQSGGGLVKPGGSLRLSCAASGFTFSSYAMHWVRQAPGKGLEWVAVISYDGSNKYYADSVKGRFTISRDNSKNTLYLQMNSLRAEDTAVYYCARFSGWPNNYYYYGMDVWGQGTTVTVSSASTKGPSVFPLAPQVQLQESGPGLVKPSEILSLTCTVSGGSISSHYWSWVRQPPGKGLEWIGYIYYSGSTNYNPSLKSRVTISVDTSKNQFSLNLSSVTAADTAVYYCARIPNYYDRSGYYPGYWYFDLWGRGTLVTVSS
VL: B5 VL
notes: as for B5

Kd [2]: 15 nM
koff [2]: 0.0017 s⁻¹
kon [2]: 110000 M⁻¹ s⁻¹
B7: DVD2210 (bispecific antibody)
VH: B5 VH
VL: DVVMTQSPLSLPVTPGEPASISCRSSQSLLHSNGFNYVDWYLQKPGQSPHLLIYFGSYRASGVPDRFSGSGSGTDFTLKISRVEAEDVGVYYCMQALQTPPWTFGQGTKVEIRRTVAAPSVFIFPPQAVLTQPSSLSAPPGASASLTCTLRSGFNVDSYRISWYQQKPGSPPQYLLRYKSDSDKQQGSGVPSRFSGSKDASANAGILLISGLQSEDEADYYCMIWHSSAWVFGGGTKLTVL
notes: as for B5

Kd [2]: 23 nM
B8: DVD2209 (bispecific antibody)
VH: QVQLQESGPGLVKPSEILSLTCTVSGGSISSHYWSWVRQPPGKGLEWIGYIYYSGSTNYNPSLKSRVTISVDTSKNQFSLNLSSVTAADTAVYYCARIPNYYDRSGYYPGYWYFDLWGRGTLVTVSSASTKGPEVQLVQSGGGLVKPGGSLRLSCAASGFTFSSYAMHWVRQAPGKGLEWVAVISYDGSNKYYADSVKGRFTISRDNSKNTLYLQMNSLRAEDTAVYYCARFSGWPNNYYYYGMDVWGQGTTVTVSS
VL: QAVLTQPSSLSAPPGASASLTCTLRSGFNVDSYRISWYQQKPGSPPQYLLRYKSDSDKQQGSGVPSRFSGSKDASANAGILLISGLQSEDEADYYCMIWHSSAWVFGGGTKLTVLRTVAAPDVVMTQSPLSLPVTPGEPASISCRSSQSLLHSNGFNYVDWYLQKPGQSPHLLIYFGSYRASGVPDRFSGSGSGTDFTLKISRVEAEDVGVYYCMQALQTPPWTFGQGTKVEIR
notes: DVD-Ig, outer AB034 / inner AB005

Kd [2]: 18 nM
B9: DVD2213 (bispecific antibody)
VH: QVQLQESGPGLVKPSEILSLTCTVSGGSISSHYWSWVRQPPGKGLEWIGYIYYSGSTNYNPSLKSRVTISVDTSKNQFSLNLSSVTAADTAVYYCARIPNYYDRSGYYPGYWYFDLWGRGTLVTVSSASTKGPSVFPLAPEVQLVQSGGGLVKPGGSLRLSCAASGFTFSSYAMHWVRQAPGKGLEWVAVISYDGSNKYYADSVKGRFTISRDNSKNTLYLQMNSLRAEDTAVYYCARFSGWPNNYYYYGMDVWGQGTTVTVSS
VL: B8 VL
notes: as for B8

Kd [2]: 15 nM
B10: DVD2211 (bispecific antibody)
VH: B8 VH
VL: QAVLTQPSSLSAPPGASASLTCTLRSGFNVDSYRISWYQQKPGSPPQYLLRYKSDSDKQQGSGVPSRFSGSKDASANAGILLISGLQSEDEADYYCMIWHSSAWVFGGGTKLTVLRTVAAPSVFIFPPDVVMTQSPLSLPVTPGEPASISCRSSQSLLHSNGFNYVDWYLQKPGQSPHLLIYFGSYRASGVPDRFSGSGSGTDFTLKISRVEAEDVGVYYCMQALQTPPWTFGQGTKVEIR
notes: as for B8

Kd [3]: 6.1 nM
koff [3]: 0.00024 s⁻¹
kon [3]: 40000 M⁻¹ s⁻¹
B11: DVD2281 (bispecific antibody)
VH: EVQLLESGGGLVQPGGSLRLSCAASGFTFSHYVMAWVRQAPGKGLEWVSSISSSGGWTLYADSVKGRFTISRDNSKNTLYLQMNSLRAEDTAVYYCTRGLKMATIFDYWGQGTLVTVSSASTKGPEVQLVQSGAEVKKPGSSVKVSCKASGGTFSSYAISWVRQAPGQGLEWMGGIIPIFGTANYAQKFQGRVTITADKSTSTAYMELSSLRSEDTAVYYCARAPLRFLEWSTQDHYYYYYMDVWGKGTTVTVSS
VL: QSALTQPASVSGSPGQSITISCTGTSSDVGSYNVVSWYQQHPGKAPKLIIYEVSQRPSGVSNRFSGSKSGNTASLTISGLQTEDEADYYCCSYAGSSIFVIFGGGTKVTVLGQPKAAPSSELTQDPAVSVALGQTVRITCQGDSLRSYYATWYQQKPGQAPILVIYGENKRPSGIPDRFSGSSSGNTASLTITGAQAEDEADYYCKSRDGSGQHLVFGGGTKLTVL
notes: DVD-Ig, outer AB116 / inner AB075
